In patent publication US20220251186A1 (TAVOTEK BIOTHERAPEUTICS HONG KONG, published 2022):

Legend:
[1] = target: T1, mouse TSLP (R&D Systems) (mouse, UniProt Q9JIE6 20-140); assay: ELISA, plate coated with mouse TSLP, antibody titrated, HRP-conjugated anti-mouse secondary antibody, OD 450 nm
T1 sequence (looked up): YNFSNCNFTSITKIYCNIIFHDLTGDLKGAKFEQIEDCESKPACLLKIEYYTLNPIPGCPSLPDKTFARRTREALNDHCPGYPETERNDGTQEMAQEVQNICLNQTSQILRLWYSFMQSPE

[2] = target: T2, recombinant human TSLP (R&D Systems) (human, UniProt Q969D9 29-159); assay: ELISA, 1 µg/mL recombinant human TSLP coated, HRP anti-mouse detection
T2 construct: also called thymic stromal lymphopoietin

[3] = target: T2, recombinant human TSLP (R&D Systems); assay: cell-based or functional assay
[4] = target: T2, recombinant human TSLP (R&D Systems); assay: ELISA, plate coated with 1 µg/mL recombinant human TSLP, antibody titrated, HRP-conjugated secondary antibody, OD 450 nm
[5] = target: T3, Cynomolgus monkey TSLP (Cynomolgus monkey, UniProt A0A7N9CAT7 29-159); assay: ELISA, plate coated with cynomolgus monkey TSLP, antibody titrated, OD 450 nm
T3 construct: also called cynomolgus TSLP

[6] = target: T4, recombinant mouse FcRn (R&D Systems) (mouse, UniProt Q61559 22-297; P01887 21-119, limits assumed); assay: ELISA at pH 6.0, 1 µg/mL recombinant mouse FcRn coated, HRP anti-human detection
T4 sequence (looked up) 1: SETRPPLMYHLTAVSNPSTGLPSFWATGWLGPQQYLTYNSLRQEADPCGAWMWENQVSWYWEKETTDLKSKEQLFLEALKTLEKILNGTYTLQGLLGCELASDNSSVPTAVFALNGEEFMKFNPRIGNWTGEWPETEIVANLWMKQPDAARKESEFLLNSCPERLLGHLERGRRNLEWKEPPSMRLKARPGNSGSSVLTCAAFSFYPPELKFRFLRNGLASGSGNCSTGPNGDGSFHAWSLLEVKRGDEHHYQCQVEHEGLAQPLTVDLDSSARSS
T4 sequence (looked up) 2: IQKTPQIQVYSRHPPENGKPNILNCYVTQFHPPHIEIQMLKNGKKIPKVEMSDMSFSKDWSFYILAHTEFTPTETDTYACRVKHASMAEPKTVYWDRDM
Method: 1 μg/mL recombinant mouse FcRn (R&D Systems) were coated on ELISA plate.

B1: mouse monoclonal anti-human TSLP antibody TAVO202 (antibody, V domains shown)
VH: QVQLQQSGAELVRPGSSVKISCKASGYTFSSYWVNWVKQRPGQGLEWIGQIYPGDGDTDYNGKFKGKATLTADKSSSTAYMQLSSLTSEDSAVYFCARGTYYNNYYGTDYWGQGTSVTVSS
VL: EIVLTQSPALMAASPGEKVTITCSVSSSISSSNLHWYQQKSETSPKPWIYGTSNLASGVPVRFSGSGSGTSYSLTISSMEAEDAATYYCQQWSSYPLTFGGGTKLEIK
notes: Mouse monoclonal antibody from hybridoma screening; also called mouse anti-TSLP antibody TAVO202
- binding result [1]: no binding (tested: about 5 µg/mL)
- EC50 [2]: 2.4 ng/mL
- IC50, neutralization of TSLP-driven STAT5 luciferase reporter gene expression (10 ng/mL human TSLP) [3]: 20 ng/mL
- IC50, neutralization of TSLP-driven proliferation of transfected BAF3 cells (0.5 ng/mL human TSLP) [3]: 6.6 ng/mL

B2: TAVO6264 (antibody, human IgG2, kappa)
heavy: QVQLVQSGAEVKKPGSSVKVSCKASGYTFSSYWVNWVRQAPGQGLEWIGQIYPGDGDTDYAQKFQGRATLTADKSTSTAYMELSSLRSEDTAVYFCARGTYYNNYYGTDYWGQGTTVTVSSASTKGPSVFPLAPCSRSTSESTAALGCLVKDYFPEPVTVSWNSGALTSGVHTFPAVLQSSGLYSLSSVVTVPSSNFGTQTYTCNVDHKPSNTKVDKTVERKCCVECPPCPAPPVAGPSVFLFPPKPKDTLMISRTPEVTCVVVDVSHEDPEVQFNWYVDGVEVHNAKTKPREEQFNSTFRVVSVLTVVHQDWLNGKEYKCKVSNKGLPAPIEKTISKTKGQPREPQVYTLPPSREEMTKNQVSLTCLVKGFYPSDIAVEWESNGQPENNYKTTPPMLDSDGSFFLYSKLTVDKSRWQQGNVFSCSVMHEALHNHYTQKSLSLSPGK
light: DIQLTQSPSFLSASVGDRVTITCSVSSSISSSNLHWYQQKPGKAPKPWIYGTSNLASGVPSRFSGSGSGTEYTLTISSLQPEDAATYYCQQWSSYPLTFGQGTKLEIKRTVAAPSVFIFPPSDEQLKSGTASVVCLLNNFYPREAKVQWKVDNALQSGNSQESVTEQDSKDSTYSLSSTLTLSKADYEKHKVYACEVTHQGLSSPVTKSFNRGEC
notes: Human IgG2 Fc; also called humanized TAVO202 antibody 202H2/202L3 with human IgG2 Fc
- EC50 (read off the curve) [4]: ~2 ng/mL

B3: TAVO6265 (antibody, human IgG2, kappa)
heavy: QVQLVQSGAEVKKPGSSVKVSCKASGYTFSSYWVNWVRQAPGQGLEWIGQIYPGDGDTDYAQKFQGRATLTADKSTSTAYMELSSLRSEDTAVYFCARGTYYNNYYGTDYWGQGTTVTVSSASTKGPSVFPLAPCSRSTSESTAALGCLVKDYFPEPVTVSWNSGALTSGVHTFPAVLQSSGLYSLSSVVTVPSSNFGTQTYTCNVDHKPSNTKVDKTVERKCCVECPPCPAPPVAGPSVFLFPPKPKDTLMISRTPEVTCVVVDVSHEDPEVQFNWYVDGVEVHNAKTKPREEQFNSTFRVVSVLTVVHQDWLNGKEYKCKVSNKGLPAPIEKTISKTKGQPREPQVYTLPPSREEMTKNQVSLTCLVKGFYPSDIAVEWESNGQPENNYKTTPPMLDSDGSFFLYSKLTVDKSRWQQGNVFSCSVMHEALHNHYTQKSLSLSPGK
light: EIVLTQSPDFQSVTPKEKVTITCSVSSSISSSNLHWYQQKPDQSPKPWIYGTSNLASGVPSRFSGSGSGTDYTLTINSLEAEDAATYYCQQWSSYPLTFGQGTKLEIKRTVAAPSVFIFPPSDEQLKSGTASVVCLLNNFYPREAKVQWKVDNALQSGNSQESVTEQDSKDSTYSLSSTLTLSKADYEKHKVYACEVTHQGLSSPVTKSFNRGEC
notes: Human IgG2 Fc; also called humanized TAVO202 antibody 202H2/202L4 with human IgG2 Fc
- EC50 (read off the curve) [4]: ~2 ng/mL

B4: TAVO7264 (antibody, human IgG1, kappa)
heavy: QVQLVQSGAEVKKPGSSVKVSCKASGYTFSSYWVNWVRQAPGQGLEWIGQIYPGDGDTDYAQKFQGRATLTADKSTSTAYMELSSLRSEDTAVYFCARGTYYNNYYGTDYWGQGTTVTVSSASTKGPSVFPLAPSSKSTSGGTAALGCLVKDYFPEPVTVSWNSGALTSGVHTFPAVLQSSGLYSLSSVVTVPSSSLGTQTYICNVNHKPSNTKVDKKVEPKSCDKTHTCPPCPAPEFEGGPSVFLFPPKPKDTLMISRTPEVTCVVVAVSHEDPEVKFNWYVDGVEVHNAKTKPREEQYNSTYRVVSVLTVLHQDWLNGKEYKCKVSNKALPAPIEKTISKAKGQPREPQVYTLPPSREEMTKNQVSLTCLVKGFYPSDIAVEWESNGQPENNYKTTPPVLDSDGSFLLYSKLTVDKSRWQQGNVFSCSVMHEALHNHYTQKSLSLSPGK
light: DIQLTQSPSFLSASVGDRVTITCSVSSSISSSNLHWYQQKPGKAPKPWIYGTSNLASGVPSRFSGSGSGTEYTLTISSLQPEDAATYYCQQWSSYPLTFGQGTKLEIKRTVAAPSVFIFPPSDEQLKSGTASVVCLLNNFYPREAKVQWKVDNALQSGNSQESVTEQDSKDSTYSLSSTLTLSKADYEKHKVYACEVTHQGLSSPVTKSFNRGEC
notes: also called humanized TAVO202 antibody 202H2/202L3 with human IgG1 Fc (L234F, L235E, D265A, F405L)
- binding result [5]: no binding (tested: 1 µg/mL)

B5: TAVO9765 (antibody, human IgG1, kappa, L234A L235A)
heavy: QVQLVQSGAEVKKPGSSVKVSCKASGYTFSSYWVNWVRQAPGQGLEWIGQIYPGDGDTDYAQKFQGRATLTADKSTSTAYMELSSLRSEDTAVYFCARGTYYNNYYGTDYWGQGTTVTVSSASTKGPSVFPLAPSSKSTSGGTAALGCLVKDYFPEPVTVSWNSGALTSGVHTFPAVLQSSGLYSLSSVVTVPSSSLGTQTYICNVNHKPSNTKVDKKVEPKSCDKTHTCPPCPAPEAAGGPSVFLFPPKPKDTLMISRTPEVTCVVVDVSHEDPEVKFNWYVDGVEVHNAKTKPREEQYNSTYRVVSVLTVLHQDWLNGKEYKCKVSNKALPAPIEKTISKAKGQPREPQVYTLPPSREEMTKNQVSLTCLVKGFYPSDIAVEWESNGQPENNYKTTPPVLDSDGSFFLYSKLTVDKSRWQQGNVFSCSVLHEALHSHYTQKSLSLSPGK
light: EIVLTQSPDFQSVTPKEKVTITCSVSSSISSSNLHWYQQKPDQSPKPWIYGTSNLASGVPSRFSGSGSGTDYTLTINSLEAEDAATYYCQQWSSYPLTFGQGTKLEIKRTVAAPSVFIFPPSDEQLKSGTASVVCLLNNFYPREAKVQWKVDNALQSGNSQESVTEQDSKDSTYSLSSTLTLSKADYEKHKVYACEVTHQGLSSPVTKSFNRGEC
notes: also called humanized TAVO202 antibody 202H2/202L4 with human IgG1 Fc (L234A, L235A, M428L, N434S)
- fold better potency than TAVO7265 [6]: ~10 fold

B6: TAVO7265 (antibody, human IgG1, kappa)
heavy: QVQLVQSGAEVKKPGSSVKVSCKASGYTFSSYWVNWVRQAPGQGLEWIGQIYPGDGDTDYAQKFQGRATLTADKSTSTAYMELSSLRSEDTAVYFCARGTYYNNYYGTDYWGQGTTVTVSSASTKGPSVFPLAPSSKSTSGGTAALGCLVKDYFPEPVTVSWNSGALTSGVHTFPAVLQSSGLYSLSSVVTVPSSSLGTQTYICNVNHKPSNTKVDKKVEPKSCDKTHTCPPCPAPEFEGGPSVFLFPPKPKDTLMISRTPEVTCVVVAVSHEDPEVKFNWYVDGVEVHNAKTKPREEQYNSTYRVVSVLTVLHQDWLNGKEYKCKVSNKALPAPIEKTISKAKGQPREPQVYTLPPSREEMTKNQVSLTCLVKGFYPSDIAVEWESNGQPENNYKTTPPVLDSDGSFLLYSKLTVDKSRWQQGNVFSCSVMHEALHNHYTQKSLSLSPGK
light: EIVLTQSPDFQSVTPKEKVTITCSVSSSISSSNLHWYQQKPDQSPKPWIYGTSNLASGVPSRFSGSGSGTDYTLTINSLEAEDAATYYCQQWSSYPLTFGQGTKLEIKRTVAAPSVFIFPPSDEQLKSGTASVVCLLNNFYPREAKVQWKVDNALQSGNSQESVTEQDSKDSTYSLSSTLTLSKADYEKHKVYACEVTHQGLSSPVTKSFNRGEC
notes: also called humanized TAVO202 antibody 202H2/202L4 with human IgG1 Fc (L234F, L235E, D265A, F405L)
- binding result [5]: no binding (tested: 1 µg/mL)
